The test addresses T1, recombinant human Siglec-15 protein (Homo sapiens, UniProt Q6ZMC9).
T1 construct: purchased Bonopusbio CW70-50 ug
T1 sequence (Q6ZMC9 20-263 limits assumed): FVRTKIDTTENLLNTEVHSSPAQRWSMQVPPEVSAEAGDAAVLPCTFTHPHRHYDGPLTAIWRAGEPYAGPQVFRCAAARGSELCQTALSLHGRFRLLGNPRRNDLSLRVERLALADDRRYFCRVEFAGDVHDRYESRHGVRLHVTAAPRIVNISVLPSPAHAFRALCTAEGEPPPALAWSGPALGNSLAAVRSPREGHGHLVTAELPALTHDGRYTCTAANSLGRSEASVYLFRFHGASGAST
Description: BIACORE surface plasmon resonance binding affinity. The conditions noted are these: SPR; antibody as ligand, human Siglec-15 as analyte; 1:1 Langmuir model. The text has this:
Binding affinity determination of anti-Siglec-15 monoclonal antibodies using BIACORE surface plasmon resonance: The purified anti-Siglec-15 monoclonal antibodies (mAbs) were characterized for binding affinity and binding kinetics by Biacore T200 system (GE healthcare, Pittsburgh, PA, USA). Anti-Siglec-15 antibodies were covalently linked to a CM5 chip (carboxy methyl dextran coated chip, GE healthcare, Cat #BR-1005-30) via primary amines, using a standard amine coupling kit provided by Biacore (GE healthcare, Pittsburgh, PA, USA). Un-reacted moieties on the biosensor surface were blocked with ethanolamine. Then, serially diluted recombinant human Siglec-15-his protein (Bonopusbio, CW70-50 ug), 2-fold serial dilution in HBS-EP buffer starting at 80 nM, were respectively flown onto the chip at a flow rate of […]. The antigen-antibody association kinetics was followed for 2 minutes, and the dissociation kinetics was followed for 10 minutes. The association and dissociation curves were fit to a 1:1 Langmuir binding model using BIAcore evaluation software. The dissociation rate (kd) and association constant (ka) rate constants were obtained using Evaluation Software. The equilibrium dissociation constant (KD) was calculated from the ratio of kd over ka.

Here are results for one molecule from US20250361297A1, “ANTI- SIGLEC-15 BINDING MOLECULES AND METHODS OF USE” (ADAPTAM THERAPEUTICS, S.L., priority 2024, published 2025).

B1: S15B1: parental mouse anti-Siglec-15 monoclonal antibody from hybridoma; VH SEQ ID NO: 18, VL SEQ ID NO: 19 (antibody, V domains shown)
VH: QVQLQQSGPELVKPGASVKISCKASGYAFSSSWMNWVKQRPGKGLEWIGRIYPGHGETNYNGKFKDKATVTADKSSSTTYMQLSSLTSEDSAVYFCARVDNSDPYYFDYWGQGTTLTVSS
VL: DIVLTQSPASLAVSLGQRATISCRASKSVSTSGYSYMHWYQQKPGQPPKLLIYLASNLESGVPARFSGSGSGTDFTLNIHPVEEEDAATYYCQHGRELPFTFGSGTKLEIK
modifications: Clone S15B1 VH; Clone S15B1 VL
Regarding B1, the “ka” value turned out to be 4.46e+06 M⁻¹ s⁻¹ and the “kd” value was 0.000233 s⁻¹.
